For 34 molecules, ELISA affinity results are on record in patent US20240043505A1 (UNIVERSITY OF PITTSBURGH OF THE COMMONWEALTH SYSTEM OF …, published 2024).

Substitutions are numbered along the chain they refer to.

In the assay the target is SARS-CoV-2 spike receptor-binding domain (RBD) (SARS-CoV-2, UniProt P0DTC2 319-541). Description: indirect ELISA, RBD coated on plate, 4PL fit. (An ELISA detects its analyte on a solid surface through an enzyme-linked reagent.)

B1: Nb24 (VHH)
VHH: QVQLVESGGGLVQAGGSLRLTCAASGGTFSTSTMDMGWFRQAPGKEREFVALDSWNGGRTYYADSVKGRFTISRDNAKNTLYLQMNSLKPEDTAVYYCAADTYSNYEKDDSWGYWGQGTQVTVSS
In turn, B1 gave an ELISA affinity of 0.77 nM.

B2: Nb32 (VHH)
VHH: DVQLVESGGGLVQAGGSLRLSCAASGRTFSSDTMDMGWFRQAPGKEREFVALHSWNGGKTYYADSVKGRFTISRDNAKNTLYLQMNNLKPEDTAVYYCAAETYTLYEKDSSWGYWGQGTQVTVSS
In turn, B2 yielded an ELISA affinity of 2.17 nM.

B3: Nb26 (VHH)
VHH: B1 VHH with Q1H, G27R, T31I, L52A, S54A, G57D, A99T, E107K
The molecule B3 registered an ELISA affinity of 0.92 nM.

B4: Nb29 (VHH)
VHH: B1 VHH with Q1H, L52V, G57D, T60A, D101E, D109A, D110Y
B4 yielded an ELISA affinity of 1.25 nM.

B5: Nb76 (VHH)
VHH: DVQLVESGGGLVQAGGSLRLSCAVSGRTFSISTMGWFRQAPGKERLFVAGITWHDGSTNYADSVKGRFTISRDNAKNTVYLQMNSLKPEDTALYYCAARKSINYVQEYDYWGRGTQVTVSS
The molecule B5 showed an ELISA affinity of 0.17 nM.

B6: Nb18 (VHH)
VHH: DVQLVESGGGLVQAGGSLRLSCAASGRTFSSYNVGWFRQAPGKEREFVAFIRWSGTSTYYADSVKGRFTISRDNAKNTVYLQMNSLKPEDTAVYYCAATSRTMIHTSQAMPINWDYWGQGTQVTVSS
B6 showed an ELISA affinity of 0.57 nM.

B7: Nb100 (VHH)
VHH: B6 VHH with D1E, R27L, V34M, N74T, P88L, A109T, P111R
Molecule B7 returned an ELISA affinity of 1.04 nM.

B8: Nb84 (VHH)
VHH: B6 VHH with N33S, V34M, E89D, T99S, I104N, H105T, T106I, A109T, P111R
In turn, B8 had an ELISA affinity of 0.53 nM.

B9: Nb41 (VHH)
VHH: DVQLVESGGGLVQAGGSLRLSCAASGFTFSNYVMYWGRQAPGKGREWVSGIDSDGSDTAYASSVKGRFTISRDNAKKTLYLQMNDLKPEDTALYYCVKSKDRYGSPWTRSEFEDYWGQGTQVTVSS
As to B9, the ELISA affinity was 0.2 nM.

B10: Nb43 (VHH)
VHH: EVQLVESGGGLVQAGGSLRLTCAASGRTFSSSTMDMGWFRQAPGKEREFVAVDAWNDGRTYYADSVKGRFTISRDNAKNTLYLQMNSLKPEDTAIYYCNLRQGCSYNGCDEYWGQGTQVTVSS
In turn, B10 yielded an ELISA affinity of 664 nM.

B11: Nb15 (VHH)
VHH: EVQLVESGGGLVAAGGSLRLSCVPSTNIFSANAMGWYRQAPGKQRELVASITSGGNTNYADSVKGRFTISRDNADTVILQMNSLKPEDTAVYYCKGTAYSTTYNSVRDYWGQGTQVTVSS
B11: the ELISA affinity amounted to 0.47 nM.

B12: Nb58 (VHH)
VHH: QVQLVESGGGLVQAGGSLRLSCAASGRDFSSTVMGWFRQAPGKERELVAWMTVTYDITYYADSVKGRFTISKDNAKNTVYLQANSLKPDDTAVYYCASGALRVGSFSPDYWGQGTQVTVSS
As to B12, the ELISA affinity was 2.68 nM.

B13: Nb94 (VHH)
VHH: QVQLVESGGGLVQAGGSLRLSCTASGGTFRSFTMAWFRQAPGKEREFVATLSWTGVGTYYADSVKGRFTISRDIAKNTVYLEMNSLIPEDTAVYYCAASPYTYSLLSRTGDYGYWGQGTQVTVSS
Regarding B13, the ELISA affinity is 0.5 nM.

B14: Nb37 (VHH)
VHH: QVQLVESGGGLVQTGGSLRLSCAASGRTFSNYVMGWFRQAPGKEREFVSSIEWNSENTFYANSVKGRFTISRDNAKNTVYLQMNSLKAEDTAVYYCAADRGSSYYYTRASEYTYWGQGTQVTVSS
B14 came in with an ELISA affinity of 0.38 nM.

B15: Nb42 (VHH)
VHH: HVQLVESGGGLVQAGESLRLSCVASGSIFSINAMGWFRQAPGKQRELVASISNIGTTIYAESVKGRFTISRDNAKNTADLQMNSLKPEDTAIYYCNLRQGCSYNGCDEYWGQGTQVTVSS
With B15, the ELISA affinity came to 0.66 nM.

B16: Nb68 (VHH)
VHH: QVQLVESGGGLVQAGGSLRLSCAASGGTLRSYNMGWFRQGPGKEREFVAAISWTGLGTYYGDSVKGRFTISRDVIKNTLYLQMDSLKPEDTAIYYCAADSSTSRLHSAGSDYRYWGQGTQVTVSS
Consider B16, for which the ELISA affinity was found to be 6.11 nM.

B17: Nb46 (VHH)
VHH: QVQLVESGGGLVQAGGSLRLSCAVSGSTLGINAIGWYRQPPGKQRELVASISSLGTTLYAESVKGRFAISRDNAKNTGYLQMNSLKPDDTAVYYCNMRTPYMRDYWGQGTQVTVSS
As to B17, the ELISA affinity worked out at 25.9 nM.

B18: Nb63 (VHH)
VHH: QVQLVESGGGLVQAGGSLRLSCVASGSGFEPNAMGWYRQAPGKQRELVAGITSGGNANYADSVKGRFTISRDNVKNTVYLQMNSLKPEDTAVYYCQGPACSGSGCRNYWGQGTQVTVSS
For the molecule B18, the ELISA affinity is 0.84 nM.

B19: Nb10 (VHH)
VHH: DVQLVESGGGLVQAGGSLKLSCTASESTFNFNHIDWYRQAPGKQRESVAVITNTDVTNYADSVKGRFTISRDNAKNTVYLQMNSLKPEDTAVYLCNAWRFGPTGVKVDYWGQGTQVTVSS
In the case of B19, the ELISA affinity stood at 0.24 nM.

B20: Nb80 (VHH)
VHH: HVQLVESGGGLVQPGGSLRLSCAASGNFFLINVMSWWRQAPGNEHELHELVATITSDGRTNYGDAVQGRFTISRDNAKNTLYLQMNSLKPEDTAVYYCYAQGQGNREYWGQGTQVTVSS
Molecule B20 yielded an ELISA affinity of 5.09 nM.

B21: Nb3 (VHH)
VHH: HVQLVESGGGLVQAGGSLRLSCVASGSGFEPNAMGWYRQAPGKQRELVAGITSGGNTNYADSVKGRFTISRDNVKNTVYLQMNSLKPEDTAVYYCNAVAPRINPRGSPTNYWGQGTQVTVSS
For B21, the ELISA affinity was 0.48 nM.

B22: Nb4 (VHH)
VHH: B21 VHH with H1Q, T57A, A99G, I102F
In turn, B22 came in with an ELISA affinity of 0.67 nM.

B23: Nb74 (VHH)
VHH: HVQLVESGGGLVQAGGSLRLSCAASGRTFSSHAMAWFRQAPGKEREFVAGISWSGPYYVDSVKGRFTISTDNAKNTVYLQMNSLTPEDTAVYYCASSRGPNLYPHIGDVEYWGQGTQVTVSS
B23 gave an ELISA affinity of 67.1 nM.

B24: Nb91 (VHH)
VHH: HVQLVESGGGLVQPGGSLRLSCAASGLTLNDYAIGWFRQAPGKEREGVSCISSSDGTTYYADSVKGRFTISRDNAKNTVYLQMNSLKPEDTAVYYCATDIAPFYCSWPLRTRLVEYWGQGTQVTVSS
As to B24, the ELISA affinity was determined as 1.28 nM.

B25: Nb93 (VHH)
VHH: EVQLVESGGGLVQPGGSLRLSCAASGFTFSSYAMSWVRQAPGKGREWVAGITPGSGTFYADSVKGRFTISRDNAKNTLSLEINSLKPEDTALYYCAKCRQEFSWDFSSRDPDDFDYWGQGTQVTVSS
On to B25, for which the ELISA affinity was 1.15 nM.

B26: Nb62 (VHH)
VHH: HVQLVESGGGLVQAGGSLRLTCAASGRTFSSSTMDMGWFRQAPGKEREFVAVDAWNDGRTYYADSVKGRFTISRDNAKNTLYLQMNSLKPGDTAVYYCHAVDVSVGGDYWGQGTQVTVSS
As for B26, the ELISA affinity stood at 85.7 nM.

B27: Nb55 (VHH)
VHH: DVQLVESGGGLVQAGGSLRLSCAASGRTFGSTMAWFRQAPGKERDFVAAITWSADRISYADSVKGRFTISRDNDKNIVHLQMNSLKPEDTAVYVCAARASSNTYDDPRSFAFWGQGTQVTVSS
Turning to B27, the ELISA affinity came to 2.24 nM.

B28: Nb90 (VHH)
VHH: HVQLVESGGGLVQAGGSLRLSCAVSGRTVSSYVMGWFRQAPGKEREFVAGIGRTGMTITADSVKGRFTISRDNAKNLVYLQMNSLKSEDTAVYWCAAGVRDFAPRIDSYDYWGQGTQVTVSS
The molecule B28 displayed an ELISA affinity of 4.03 nM.

B29: Nb12 (VHH)
VHH: HVQLVESGGGLVQAGGSLRLTCAASGGTFSTSTMDMGWFRQAPGKEREFVAVDSWNDGRAYYADSVKGRFTISRDSAKTTLYLQMNSLKPEDTAVYYCAARTERGVYDYWGRGTQVTVSS
Regarding B29, the ELISA affinity came out at 539 nM.

B30: Nb39 (VHH)
VHH: QVQLVESGGGLVQAGGSLRLSCAASGRTFRFSAIDWYRQAPGQQREFVASISTSGRISYGHFVKGRFTISRDNAKNTMYLQMNSLKPEDTAVYYCHLAQPDVFGGGDYWGQGTQVTVSS
For the molecule B30, the ELISA affinity was 1.49 nM.

B31: Nb60 (VHH)
VHH: HVQLVESGGGLVQAGDSLRLSCAASERTNINYAMGWFRQAPGKERDFVAAIGWNGSIIKYAESVKGRFTISRDDAKNTVSLQMNSLKPEDTAVYYCAARIGSIANLQPREYEFAYWGQGTQVTVSS
Molecule B31 registered an ELISA affinity of 138 nM.

B32: Nb2 (VHH)
VHH: QVQLVESGGGLVQAGGSLRLSCAASGRTFSIYNMGWFRQAPGKEREFVIHMNWSNGNTATAASVKDRFTISRDNAKNTVYLQMSSLKPEDTAVYYCHATTNDYDYWGQGTQVTVSS
B32: the ELISA affinity came to 4.82 nM.

B33: Nb6 (VHH)
VHH: HVQLVESGGGLVQAGGSLRLSCAASGRTFSTHATGWFRQAPGKEREFLATSVWLDDISRDSTYYAESVKGRFSISRDNAKDTVYLQMNSLKPEDTAVYYCAVKQRVGPGIMSAPTYDYWGQGTQVTVSS
In turn, B33 came in with an ELISA affinity of 0.57 nM.

B34: Nb92 (VHH)
VHH: HVQLVESGGGLVQAGGSLRLSCAASGRTFSAYGMGWFRQAPGKEREFVAGIARSGSEYYGDSVKGRFTISRDNAKNTVYLQMASLKAEDTGVYYCAADPTILYHALSQRTQNYRYWGPGTQVTVSS
B34 showed an ELISA affinity of 4.92 nM.
